The nature of series [1]: Melting temperature (Tm) by circular dichroism, variable temperature (Example 3). Format: physicochemical. Conditions: higher Tm with N-terminal serine. On the technique in general: CD spectra are sensitive to the conformation of chiral molecules.
Another series has as its target T1, RSA (Rattus norvegicus, UniProt P02770).
T1 construct: purchased Sigma-Aldrich A6272
In words: Biacore affinity for albumin of various species: rat (Example 7). Format: binding, 랫트. Conditions: range stated over all five species.

The next series deals with T2, DSA (Canis lupus familiaris, UniProt P49822).
T2 construct: purchased MP Biomedicals 55925
As to the kind of experiment: Biacore affinity for albumin of various species: dog (Example 7). The series is classed as binding, 개. The settings on record: range stated over all five species. (In general: Surface plasmon resonance follows binding to a sensor surface in real time, without labels.)

Another series concerns the target T3, HSA (Homo sapiens, UniProt P02768).
T3 construct: purchased Novozymes
In words: Stability to heat and low pH, biosensor analysis of HSA binding (Example 10). The series is classed as physicochemical, 인간. The settings on record: 90℃, 10 min, pH 4.0.

A further series has as its target T4, CSA (Macaca fascicularis, UniProt A2V9Z4).
T4 construct: CSA(cynomolgus 혈청으로부터 얻어 in-house 정제시킴); from tissue; host or cells: cynomolgus serum
As to the kind of experiment: Biacore affinity for albumin of various species: cynomolgus (Example 7). Format: binding, 필리핀 원숭이. The settings on record: range stated over all five species.

The nature of series [2]: Stability to heat, CD analysis of structural reversibility (Example 10). Format: physicochemical.
The next series concerns the target T5, MSA (Mus musculus, UniProt P07724).
T5 construct: purchased Sigma-Aldrich A3559
As to the kind of experiment: Biacore affinity for albumin of various species: mouse (Example 7). The series is classed as binding, 마우스. The settings on record: range stated over all five species.

In series [3] the target is T6, 인간 혈청 알부민(HSA) (Homo sapiens, UniProt P02768).
T6 construct: purchased Novozymes
As to the kind of experiment: Biacore affinity for albumin of various species: human (Example 7). Format: binding.

Series [4] in a line: Small animal PET, whole-body distribution of 68Ga-labelled polypeptide (Example 11). The series is classed as in vivo, 랫트. The settings on record: after i.v. injection, […] scan.
In series [5] the target is T6, 인간 혈청 알부민(HSA). As to the kind of experiment: Biacore (SPR) affinity for immobilised HSA (Example 2). The series is classed as binding. Conditions: as in Example 2; data not shown.
The subject of a further series is 인간 혈청 함유 IgG. Format: binding.

Where no end group is shown, it is not given here.

T1 sequence (P02770 25-608): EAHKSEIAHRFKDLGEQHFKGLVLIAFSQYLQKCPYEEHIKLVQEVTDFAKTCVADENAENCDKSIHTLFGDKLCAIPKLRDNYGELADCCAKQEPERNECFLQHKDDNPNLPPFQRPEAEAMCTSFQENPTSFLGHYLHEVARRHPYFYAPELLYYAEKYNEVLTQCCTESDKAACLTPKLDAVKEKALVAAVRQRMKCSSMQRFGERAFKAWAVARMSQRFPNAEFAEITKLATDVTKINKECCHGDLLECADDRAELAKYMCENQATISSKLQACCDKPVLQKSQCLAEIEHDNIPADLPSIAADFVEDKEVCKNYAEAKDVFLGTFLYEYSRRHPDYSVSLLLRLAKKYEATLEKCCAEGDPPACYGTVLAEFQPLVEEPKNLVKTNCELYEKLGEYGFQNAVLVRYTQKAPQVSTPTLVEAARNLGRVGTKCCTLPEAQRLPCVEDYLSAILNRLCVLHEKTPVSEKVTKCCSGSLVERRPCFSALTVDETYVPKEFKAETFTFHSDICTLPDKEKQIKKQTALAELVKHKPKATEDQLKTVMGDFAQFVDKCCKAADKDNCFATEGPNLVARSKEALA
T5 sequence (P07724 25-608): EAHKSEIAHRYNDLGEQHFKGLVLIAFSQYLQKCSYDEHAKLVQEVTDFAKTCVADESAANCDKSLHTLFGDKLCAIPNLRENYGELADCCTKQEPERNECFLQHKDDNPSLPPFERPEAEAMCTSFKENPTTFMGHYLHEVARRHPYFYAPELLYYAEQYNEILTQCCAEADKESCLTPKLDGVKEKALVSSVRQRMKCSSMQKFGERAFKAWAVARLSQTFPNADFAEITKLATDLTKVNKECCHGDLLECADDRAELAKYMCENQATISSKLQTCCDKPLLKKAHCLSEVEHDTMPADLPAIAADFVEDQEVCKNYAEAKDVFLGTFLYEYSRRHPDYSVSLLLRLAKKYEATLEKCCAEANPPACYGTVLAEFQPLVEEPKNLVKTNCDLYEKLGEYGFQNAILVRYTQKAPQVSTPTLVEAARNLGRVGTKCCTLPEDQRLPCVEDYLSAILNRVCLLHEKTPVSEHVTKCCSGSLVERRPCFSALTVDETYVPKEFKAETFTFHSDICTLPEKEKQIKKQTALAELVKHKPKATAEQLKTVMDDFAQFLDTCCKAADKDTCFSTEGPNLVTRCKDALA
T2 sequence (P49822 25-608): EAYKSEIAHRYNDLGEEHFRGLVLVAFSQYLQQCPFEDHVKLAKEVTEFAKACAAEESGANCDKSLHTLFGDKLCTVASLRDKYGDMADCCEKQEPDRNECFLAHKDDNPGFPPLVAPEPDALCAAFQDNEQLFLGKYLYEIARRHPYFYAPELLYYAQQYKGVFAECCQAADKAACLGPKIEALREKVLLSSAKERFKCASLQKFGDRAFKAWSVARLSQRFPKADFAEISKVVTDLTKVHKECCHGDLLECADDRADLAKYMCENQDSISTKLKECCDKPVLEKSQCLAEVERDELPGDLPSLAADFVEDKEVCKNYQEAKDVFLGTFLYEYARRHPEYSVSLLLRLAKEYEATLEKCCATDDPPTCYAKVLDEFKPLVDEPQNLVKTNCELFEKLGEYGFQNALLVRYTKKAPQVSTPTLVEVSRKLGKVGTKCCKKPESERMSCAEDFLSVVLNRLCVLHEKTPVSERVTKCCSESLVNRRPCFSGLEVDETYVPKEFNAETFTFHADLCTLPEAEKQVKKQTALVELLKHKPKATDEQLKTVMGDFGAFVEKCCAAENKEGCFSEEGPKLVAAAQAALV
T4 sequence (A2V9Z4 25-608): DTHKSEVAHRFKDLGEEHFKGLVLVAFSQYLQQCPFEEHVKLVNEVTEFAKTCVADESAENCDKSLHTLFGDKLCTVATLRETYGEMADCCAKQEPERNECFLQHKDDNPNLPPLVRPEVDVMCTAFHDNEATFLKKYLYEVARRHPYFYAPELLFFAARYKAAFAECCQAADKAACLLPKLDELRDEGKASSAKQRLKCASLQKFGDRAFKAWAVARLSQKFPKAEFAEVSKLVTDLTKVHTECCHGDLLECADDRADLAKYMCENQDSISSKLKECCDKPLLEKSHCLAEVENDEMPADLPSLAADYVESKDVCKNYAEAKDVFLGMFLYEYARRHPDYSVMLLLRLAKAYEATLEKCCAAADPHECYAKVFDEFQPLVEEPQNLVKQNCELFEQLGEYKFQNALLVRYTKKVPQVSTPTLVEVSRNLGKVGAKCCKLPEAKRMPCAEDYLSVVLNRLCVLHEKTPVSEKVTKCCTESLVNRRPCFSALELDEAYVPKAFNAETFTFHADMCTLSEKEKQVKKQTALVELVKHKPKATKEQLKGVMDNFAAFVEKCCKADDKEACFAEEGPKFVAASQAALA

For the compound “PEP07554: albumin binding polypeptide variant, SEQ ID NO:156 (GSS + PP007 sequence) (GSSLASAKEAANAELDSYGVSDFYKRLIDKAKTVEGVEALKDAILAALP; Engineered albumin-binding polypeptide)”, the “Tm difference, N-terminal serine vs glycine at the same position (PEP07554 vs PEP07912)” value in series [1] is 5 °C.

On to “PEP08296: DOTA-conjugated PEP08185 (SEQ ID NO:148) (GSLAEAKEAANAELDCYGVSDFYKRLIDKAKTVEGVEALKDAILAALPG; also: DOTA conjugate, place not given here)”, for which the “KD for RSA” value with RSA is reported as “높은 친화성(KD가 피코몰 미만으로부터 나노몰 미만까지의 범위에 속함)”. Moreover, the “KD for DSA” value with DSA is recorded as “높은 친화성(KD가 피코몰 미만으로부터 나노몰 미만까지의 범위에 속함)”. Besides, the “HSA binding capacity after heat treatment” value with HSA is recorded as “약간 떨어뜨렸다”. Further, the “KD for CSA” value with CSA was “높은 친화성(KD가 피코몰 미만으로부터 나노몰 미만까지의 범위에 속함)”. The “Alpha helix content after heat treatment, pH 4.0” value in series [2] (90℃, 12 min, PBS pH 4.0) is listed as “약간 감소”. Further, the “Alpha helix content after heat treatment, pH 7.2” value in [2] (90℃, 12 min, PBS pH 7.2) is given as “어떠한 변화도 없었다”. Besides, in series [2] (temperature gradient 20-90℃, pH 4 or pH 7.2 buffer), the “Effect of short heating to 90℃ on structure (CD spectra before/after)” value was “전혀 영향을 미치지 않았다”. Also, in the series with MSA, the “KD for MSA” value is “높은 친화성(KD가 피코몰 미만으로부터 나노몰 미만까지의 범위에 속함)”. The “Rank order of relative affinity for albumins of the species” value in the series with 인간 혈청 알부민(HSA) [3] (HSA, CSA, RSA, MSA, DSA) is on record as “RSA ≥ HSA/CSA > MSA/DSA”. Besides, the “Affinity (KD) compared with PEP06923” value in the series with 인간 혈청 알부민(HSA) [3] (albumins of the tested species, same order of magnitude) is listed as “같거나 약간 낮다”. Besides, the “KD for HSA” value in the series with 인간 혈청 알부민(HSA) [3] (range stated over all five species) is reported as “높은 친화성(KD가 피코몰 미만으로부터 나노몰 미만까지의 범위에 속함)”.

Regarding “68Ga-PEP08296: 68Ga-labelled PEP08296 (DOTA-conjugated PEP08185, SEQ ID NO:148) (GSLAEAKEAANAELDCYGVSDFYKRLIDKAKTVEGVEALKDAILAALPG; also: DOTA chelator conjugated, place not given here, 68Ga label)”, the Plasma clearance entry in [4] is “매우 느린”.

Consider “PEP07975: maleimide-DOTA-conjugated PEP07834 (SEQ ID NO:160), C-terminal amide, chemically synthesised (ALASAKEAANAELDCYGVSDFYKRLIDKAKTVEGVEALKDAILAALP-NH2; also: maleimide-DOTA conjugate, place not given here)”, for which the “Binding activity to HSA” value in the series with 인간 혈청 알부민(HSA) [5] is recorded as “확인하였으며”.

As to `CC[C@H](C)[C@H](NC(=O)[C@H](C)NC(=O)[C@H](CC(=O)O)NC(=O)[C@H](CCCCN)NC(=O)[C@H](CC(C)C)NC(=O)[C@H](C)NC(=O)[C@H](CCC(=O)O)NC(=O)[C@@H](NC(=O)CNC(=O)[C@H](CCC(=O)O)NC(=O)[C@@H](NC(=O)[C@@H](NC(=O)[C@H](CCCCN)NC(=O)[C@H](C)NC(=O)[C@H](CCCCN)NC(=O)[C@H](CC(=O)O)NC(=O)[C@@H](NC(=O)[C@H](CC(C)C)NC(=O)[C@H](CCCNC(=N)N)NC(=O)[C@H](CCCCN)NC(=O)[C@H](Cc1ccc(O)cc1)NC(=O)[C@H](Cc1ccccc1)NC(=O)[C@H](CC(=O)O)NC(=O)[C@H](CO)NC(=O)[C@@H](NC(=O)CNC(=O)[C@H](Cc1ccc(O)cc1)NC(=O)[C@H](CSC1CC(=O)N(CCNC(=O)CN2CCN(CC(=O)O)CCN(CC(=O)O)CCN(CC(=O)O)CC2)C1=O)NC(=O)[C@H](CC(=O)O)NC(=O)[C@H](CC(C)C)NC(=O)[C@H](CCC(=O)O)NC(=O)[C@H](C)NC(=O)[C@H](CC(N)=O)NC(=O)[C@H](C)NC(=O)[C@H](C)NC(=O)[C@H](CCC(=O)O)NC(=O)[C@H](CCCCN)NC(=O)[C@H](C)NC(=O)[C@H](CO)NC(=O)[C@H](C)NC(=O)[C@H](CC(C)C)NC(=O)CN)C(C)C)[C@@H](C)CC)[C@@H](C)O)C(C)C)C(C)C)C(=O)N[C@@H](CC(C)C)C(=O)N[C@@H](C)C(=O)N[C@@H](C)C(=O)N[C@@H](CC(C)C)C(=O)N1CCC[C@H]1C(=O)O` (some centres unmarked) [PEP07968], in the series on CD3+ CD4+ T 세포, the Immunogenicity classification entry is “비-면역원성” and the “Number of responding individuals compared with buffer only” value is 1 명. Besides, in the series on 인간 혈청 함유 IgG, the “Reactivity with human serum IgG (mean OD and proportion of sera binding)” value was “가장 낮은 반응도”.

The values above are taken from KR20130034043A, “폴리펩타이드” (애피바디 에이비, priority 2010, dated 2013).
